Measurements as given in US20230406885A1, “CYCLIC PEPTIDES FOR TRAPPING INTERLEUKIN-1 BETA” (MERCK SHARP & DOHME LLC, priority 2022, published 2023).
*1 amine or outer side, *2 acyl side, *3 side chain or, on linkers, in order; H or OH if unused. [ ]: non-standard residue; d: D form. TyrEtNAc = L-tyrosine O-ethyl acetamide, (S)-3-(4-(2-acetamidoethoxy)phenyl)-2-aminopropanoic acid, CC(=O)NCCOc1ccc(C[C@H](N[*:1])C(=O)[*:2])cc1; AbuMph = (S)-2-amino-4-morpholinobutanoic acid, O=C([C@H](CCN1CCOCC1)N[*:1])[*:2]; Trp(4-Cl)(βS-Me) = C[C@@H](c1c[nH]c2cccc(Cl)c12)[C@H](N)C(=O)O; Pro(trans-4-NH2) = O=C([C@@H]1C[C@@H](N[*:3])CN1[*:1])[*:2]; Trp(βS-Me,4-F) = C[C@@H](c1c[nH]c2cccc(F)c12)[C@H](N)C(=O)O; Bip(4'-COOH) = N[C@@H](Cc1ccc(-c2ccc(C(=O)O)cc2)cc1)C(=O)O; SerOMe = O-methyl-L-serine, COC[C@H](N[*:1])C(=O)[*:2]; Phe(4-COOH) = N[C@@H](Cc1ccc(C(=O)O)cc1)C(=O)O; h3Pal(5-CN) = N#Cc1cncc(CC[C@H](N)C(=O)O)c1; 1Nal = N[C@@H](Cc1cccc2ccccc12)C(=O)O; hTyr = N[C@@H](CCc1ccc(O)cc1)C(=O)O; hPhe = N[C@@H](CCc1ccccc1)C(=O)O; 4Pal = N[C@@H](Cc1ccncc1)C(=O)O; dDab = NCC[C@@H](N)C(=O)O; dNMeA = CN[C@H](C)C(=O)O; Dab = NCC[C@H](N)C(=O)O; Nva = CCC[C@H](N)C(=O)O

Molecular target: Recombinant human IL-1β (BioLegend 579404) (human, UniProt P01584 117-269)
Test: cell-based or functional assay

Row | MRC5 IC50 [nM] | Binder
1 | 0.749 | cyclo([TyrEtNAc]W[Phe(4-COOH)]G[Pro(trans-4-NH2)][Trp(βS-Me,4-F)]D[dNMeA]G[Bip(4'-COOH)]W[AbuMph][dA]G) (SMILES CC(=O)NCCOc1ccc(C[C@@H]2NC(=O)CNC(=O)[C@@H](C)NC(=O)[C@H](CCN3CCOCC3)NC(=O)[C@H](Cc3c[nH]c4ccccc34)NC(=O)[C@H](Cc3ccc(-c4ccc(C(=O)O)cc4)cc3)NC(=O)CNC(=O)[C@@H](C)N(C)C(=O)[C@H](CC(=O)O)NC(=O)[C@H]([C@@H](C)c3c[nH]c4cccc(F)c34)NC(=O)[C@@H]3C[C@@H](N)CN3C(=O)CNC(=O)[C@H](Cc3ccc(C(=O)O)cc3)NC(=O)[C@H](Cc3c[nH]c4ccccc34)NC2=O)cc1) [SEQ ID NO: 162 (Example No. 162)]
2 | 0.483 | cyclo([TyrEtNAc]W[Phe(4-COOH)]G[Pro(trans-4-NH2)][Trp(βS-Me,4-F)]D[dNMeA]G[Bip(4'-COOH)]KL[dS][hTyr]) (SMILES CC(=O)NCCOc1ccc(C[C@@H]2NC(=O)[C@H](CCc3ccc(O)cc3)NC(=O)[C@@H](CO)NC(=O)[C@H](CC(C)C)NC(=O)[C@H](CCCCN)NC(=O)[C@H](Cc3ccc(-c4ccc(C(=O)O)cc4)cc3)NC(=O)CNC(=O)[C@@H](C)N(C)C(=O)[C@H](CC(=O)O)NC(=O)[C@H]([C@@H](C)c3c[nH]c4cccc(F)c34)NC(=O)[C@@H]3C[C@@H](N)CN3C(=O)CNC(=O)[C@H](Cc3ccc(C(=O)O)cc3)NC(=O)[C@H](Cc3c[nH]c4ccccc34)NC2=O)cc1) [SEQ ID NO: 161 (Example No. 161)]
3 | 0.156 | cyclo([TyrEtNAc]W[Phe(4-COOH)]G[Pro(trans-4-NH2)][Trp(βS-Me,4-F)]D[dNMeA]G[Bip(4'-COOH)]W[Dab][dA][hPhe]) (SMILES CC(=O)NCCOc1ccc(C[C@@H]2NC(=O)[C@H](CCc3ccccc3)NC(=O)[C@@H](C)NC(=O)[C@H](CCN)NC(=O)[C@H](Cc3c[nH]c4ccccc34)NC(=O)[C@H](Cc3ccc(-c4ccc(C(=O)O)cc4)cc3)NC(=O)CNC(=O)[C@@H](C)N(C)C(=O)[C@H](CC(=O)O)NC(=O)[C@H]([C@@H](C)c3c[nH]c4cccc(F)c34)NC(=O)[C@@H]3C[C@@H](N)CN3C(=O)CNC(=O)[C@H](Cc3ccc(C(=O)O)cc3)NC(=O)[C@H](Cc3c[nH]c4ccccc34)NC2=O)cc1) [SEQ ID NO: 163 (Example No. 163)]
4 | 0.088 | cyclo([TyrEtNAc]W[Phe(4-COOH)]G[Pro(trans-4-NH2)][Trp(4-Cl)(βS-Me)]D[dNMeA]G[Bip(4'-COOH)]W[SerOMe][dA][hTyr]) (SMILES COC[C@@H]1NC(=O)[C@H](Cc2c[nH]c3ccccc23)NC(=O)[C@H](Cc2ccc(-c3ccc(C(=O)O)cc3)cc2)NC(=O)CNC(=O)[C@@H](C)N(C)C(=O)[C@H](CC(=O)O)NC(=O)[C@H]([C@@H](C)c2c[nH]c3cccc(Cl)c23)NC(=O)[C@@H]2C[C@@H](N)CN2C(=O)CNC(=O)[C@H](Cc2ccc(C(=O)O)cc2)NC(=O)[C@H](Cc2c[nH]c3ccccc23)NC(=O)[C@H](Cc2ccc(OCCNC(C)=O)cc2)NC(=O)[C@H](CCc2ccc(O)cc2)NC(=O)[C@@H](C)NC1=O) [SEQ ID NO: 153 (Example No. 153)]
5 | 0.22 | cyclo([TyrEtNAc]W[Phe(4-COOH)]G[Pro(trans-4-NH2)][Trp(βS-Me,4-F)]D[dNMeA]G[Bip(4'-COOH)][1Nal]S[dA][hTyr]) (SMILES CC(=O)NCCOc1ccc(C[C@@H]2NC(=O)[C@H](CCc3ccc(O)cc3)NC(=O)[C@@H](C)NC(=O)[C@H](CO)NC(=O)[C@H](Cc3cccc4ccccc34)NC(=O)[C@H](Cc3ccc(-c4ccc(C(=O)O)cc4)cc3)NC(=O)CNC(=O)[C@@H](C)N(C)C(=O)[C@H](CC(=O)O)NC(=O)[C@H]([C@@H](C)c3c[nH]c4cccc(F)c34)NC(=O)[C@@H]3C[C@@H](N)CN3C(=O)CNC(=O)[C@H](Cc3ccc(C(=O)O)cc3)NC(=O)[C@H](Cc3c[nH]c4ccccc34)NC2=O)cc1) [SEQ ID NO: 155 (Example No. 155)]
6 | 0.118 | cyclo([TyrEtNAc]W[Phe(4-COOH)]G[Pro(trans-4-NH2)][Trp(βS-Me,4-F)]D[dNMeA]G[Bip(4'-COOH)]KL[dA][hTyr]) (SMILES CC(=O)NCCOc1ccc(C[C@@H]2NC(=O)[C@H](CCc3ccc(O)cc3)NC(=O)[C@@H](C)NC(=O)[C@H](CC(C)C)NC(=O)[C@H](CCCCN)NC(=O)[C@H](Cc3ccc(-c4ccc(C(=O)O)cc4)cc3)NC(=O)CNC(=O)[C@@H](C)N(C)C(=O)[C@H](CC(=O)O)NC(=O)[C@H]([C@@H](C)c3c[nH]c4cccc(F)c34)NC(=O)[C@@H]3C[C@@H](N)CN3C(=O)CNC(=O)[C@H](Cc3ccc(C(=O)O)cc3)NC(=O)[C@H](Cc3c[nH]c4ccccc34)NC2=O)cc1) [SEQ ID NO: 159 (Example No. 159)]
7 | 0.403 | cyclo([TyrEtNAc]W[Phe(4-COOH)]G[Pro(trans-4-NH2)][Trp(βS-Me,4-F)]D[dNMeA]G[Bip(4'-COOH)][4Pal][Nva][dA][hTyr]) (SMILES CCC[C@@H]1NC(=O)[C@H](Cc2ccncc2)NC(=O)[C@H](Cc2ccc(-c3ccc(C(=O)O)cc3)cc2)NC(=O)CNC(=O)[C@@H](C)N(C)C(=O)[C@H](CC(=O)O)NC(=O)[C@H]([C@@H](C)c2c[nH]c3cccc(F)c23)NC(=O)[C@@H]2C[C@@H](N)CN2C(=O)CNC(=O)[C@H](Cc2ccc(C(=O)O)cc2)NC(=O)[C@H](Cc2c[nH]c3ccccc23)NC(=O)[C@H](Cc2ccc(OCCNC(C)=O)cc2)NC(=O)[C@H](CCc2ccc(O)cc2)NC(=O)[C@@H](C)NC1=O) [SEQ ID NO: 157 (Example No. 157)]
8 | 0.06 | cyclo([TyrEtNAc]W[Phe(4-COOH)]G[Pro(trans-4-NH2)][Trp(4-Cl)(βS-Me)]D[dNMeA]G[Bip(4'-COOH)]W[SerOMe][dA][hPhe]) (SMILES COC[C@@H]1NC(=O)[C@H](Cc2c[nH]c3ccccc23)NC(=O)[C@H](Cc2ccc(-c3ccc(C(=O)O)cc3)cc2)NC(=O)CNC(=O)[C@@H](C)N(C)C(=O)[C@H](CC(=O)O)NC(=O)[C@H]([C@@H](C)c2c[nH]c3cccc(Cl)c23)NC(=O)[C@@H]2C[C@@H](N)CN2C(=O)CNC(=O)[C@H](Cc2ccc(C(=O)O)cc2)NC(=O)[C@H](Cc2c[nH]c3ccccc23)NC(=O)[C@H](Cc2ccc(OCCNC(C)=O)cc2)NC(=O)[C@H](CCc2ccccc2)NC(=O)[C@@H](C)NC1=O) [SEQ ID NO: 152 (Example No. 152)]
9 | 0.0759 | cyclo([TyrEtNAc]W[Phe(4-COOH)]G[Pro(trans-4-NH2)][Trp(4-Cl)(βS-Me)]D[dNMeA]G[Bip(4'-COOH)]WS[dA][hTyr]) (SMILES CC(=O)NCCOc1ccc(C[C@@H]2NC(=O)[C@H](CCc3ccc(O)cc3)NC(=O)[C@@H](C)NC(=O)[C@H](CO)NC(=O)[C@H](Cc3c[nH]c4ccccc34)NC(=O)[C@H](Cc3ccc(-c4ccc(C(=O)O)cc4)cc3)NC(=O)CNC(=O)[C@@H](C)N(C)C(=O)[C@H](CC(=O)O)NC(=O)[C@H]([C@@H](C)c3c[nH]c4cccc(Cl)c34)NC(=O)[C@@H]3C[C@@H](N)CN3C(=O)CNC(=O)[C@H](Cc3ccc(C(=O)O)cc3)NC(=O)[C@H](Cc3c[nH]c4ccccc34)NC2=O)cc1) [SEQ ID NO: 151 (Example No. 151)]
10 | 0.0257 | cyclo([TyrEtNAc]W[Phe(4-COOH)]G[Pro(trans-4-NH2)][Trp(βS-Me,4-F)]D[dNMeA]G[Bip(4'-COOH)]KL[dA][h3Pal(5-CN)]) (SMILES CC(=O)NCCOc1ccc(C[C@@H]2NC(=O)[C@H](CCc3cncc(C#N)c3)NC(=O)[C@@H](C)NC(=O)[C@H](CC(C)C)NC(=O)[C@H](CCCCN)NC(=O)[C@H](Cc3ccc(-c4ccc(C(=O)O)cc4)cc3)NC(=O)CNC(=O)[C@@H](C)N(C)C(=O)[C@H](CC(=O)O)NC(=O)[C@H]([C@@H](C)c3c[nH]c4cccc(F)c34)NC(=O)[C@@H]3C[C@@H](N)CN3C(=O)CNC(=O)[C@H](Cc3ccc(C(=O)O)cc3)NC(=O)[C@H](Cc3c[nH]c4ccccc34)NC2=O)cc1) [SEQ ID NO: 158 (Example No. 158)]
11 | 0.522 | cyclo([TyrEtNAc]W[Phe(4-COOH)]G[Pro(trans-4-NH2)][Trp(βS-Me,4-F)]D[dNMeA]G[Bip(4'-COOH)]KL[dDab][hTyr]) (SMILES CC(=O)NCCOc1ccc(C[C@@H]2NC(=O)[C@H](CCc3ccc(O)cc3)NC(=O)[C@@H](CCN)NC(=O)[C@H](CC(C)C)NC(=O)[C@H](CCCCN)NC(=O)[C@H](Cc3ccc(-c4ccc(C(=O)O)cc4)cc3)NC(=O)CNC(=O)[C@@H](C)N(C)C(=O)[C@H](CC(=O)O)NC(=O)[C@H]([C@@H](C)c3c[nH]c4cccc(F)c34)NC(=O)[C@@H]3C[C@@H](N)CN3C(=O)CNC(=O)[C@H](Cc3ccc(C(=O)O)cc3)NC(=O)[C@H](Cc3c[nH]c4ccccc34)NC2=O)cc1) [SEQ ID NO: 160 (Example No. 160)]
12 | 0.948 | cyclo([TyrEtNAc]W[Phe(4-COOH)]G[Pro(trans-4-NH2)][Trp(βS-Me,4-F)]D[dNMeA]G[Bip(4'-COOH)][4Pal]L[dA][hTyr]) (SMILES CC(=O)NCCOc1ccc(C[C@@H]2NC(=O)[C@H](CCc3ccc(O)cc3)NC(=O)[C@@H](C)NC(=O)[C@H](CC(C)C)NC(=O)[C@H](Cc3ccncc3)NC(=O)[C@H](Cc3ccc(-c4ccc(C(=O)O)cc4)cc3)NC(=O)CNC(=O)[C@@H](C)N(C)C(=O)[C@H](CC(=O)O)NC(=O)[C@H]([C@@H](C)c3c[nH]c4cccc(F)c34)NC(=O)[C@@H]3C[C@@H](N)CN3C(=O)CNC(=O)[C@H](Cc3ccc(C(=O)O)cc3)NC(=O)[C@H](Cc3c[nH]c4ccccc34)NC2=O)cc1) [SEQ ID NO: 156 (Example No. 156)]
13 | 0.196 | cyclo([TyrEtNAc]W[Phe(4-COOH)]G[Pro(trans-4-NH2)][Trp(βS-Me,4-F)]D[dNMeA]G[Bip(4'-COOH)][1Nal][Dab][dA][hTyr]) (SMILES CC(=O)NCCOc1ccc(C[C@@H]2NC(=O)[C@H](CCc3ccc(O)cc3)NC(=O)[C@@H](C)NC(=O)[C@H](CCN)NC(=O)[C@H](Cc3cccc4ccccc34)NC(=O)[C@H](Cc3ccc(-c4ccc(C(=O)O)cc4)cc3)NC(=O)CNC(=O)[C@@H](C)N(C)C(=O)[C@H](CC(=O)O)NC(=O)[C@H]([C@@H](C)c3c[nH]c4cccc(F)c34)NC(=O)[C@@H]3C[C@@H](N)CN3C(=O)CNC(=O)[C@H](Cc3ccc(C(=O)O)cc3)NC(=O)[C@H](Cc3c[nH]c4ccccc34)NC2=O)cc1) [SEQ ID NO: 154 (Example No. 154)]
